Our source for the Kd values is publication PMC8924211 (Nature Communications, 2022).

For orientation: Kd means the equilibrium constant for the complex coming apart.

Changes are numbered by the printed parent chain.

Assay in all cases: AlphaScreen or HTRF; saturation binding: HEK293 cells transfected with SNAP-tagged receptor (WT or mutant) and labelled with SNAP-Lumi4-Tb, incubated with increasing concentrations of galanin-A2 in the presence or absence of 100 uM unlabeled galanin, 1 h at room temperature; HTRF ratio 665 nm/620 nm
Details in all cases: one partner purified
A general note: Alpha assays give light when donor and acceptor beads are brought close together.

For one assay, the target named is T1, SNAP-GAL2R L169^ECL2A (human, UniProt O43603 1-387, L169^ECL2A, Lumi4-Tb on the SNAP tag).
T1 construct: also called L169A; source: HEK293, transfected, on cells; not shown: SNAP tag, N-terminal, kept
T1 sequence (looked up): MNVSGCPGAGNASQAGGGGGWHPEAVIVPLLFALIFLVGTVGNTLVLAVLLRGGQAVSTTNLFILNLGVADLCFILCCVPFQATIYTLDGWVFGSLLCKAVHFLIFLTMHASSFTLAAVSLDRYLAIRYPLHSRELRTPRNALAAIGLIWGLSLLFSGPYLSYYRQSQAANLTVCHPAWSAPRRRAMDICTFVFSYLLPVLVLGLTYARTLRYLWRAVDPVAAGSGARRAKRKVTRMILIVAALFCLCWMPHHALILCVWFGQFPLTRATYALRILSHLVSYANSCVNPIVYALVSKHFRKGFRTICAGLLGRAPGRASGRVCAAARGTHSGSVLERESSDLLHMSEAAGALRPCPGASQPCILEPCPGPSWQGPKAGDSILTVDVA

The target in the next assay is T2, SNAP-GAL2R A170^ECL2S (human, UniProt O43603 1-387, A170^ECL2S, Lumi4-Tb on the SNAP tag).
T2 construct: also called A170S; source: HEK293, transfected, on cells; not shown: SNAP tag, N-terminal, kept
T2 sequence (looked up): T1 sequence (looked up) with A169L, A170S

The target in the next assay is T3, SNAP-GAL2R L172^ECL2A (human, UniProt O43603 1-387, L172^ECL2A, Lumi4-Tb on the SNAP tag).
T3 construct: also called L172A; source: HEK293, transfected, on cells; not shown: SNAP tag, N-terminal, kept
T3 sequence (looked up): T1 sequence (looked up) with A169L, L172A

The target of a further assay is T4, SNAP-GAL2R W249^6.48A (human, UniProt O43603 1-387, W249^6.48A, Lumi4-Tb on the SNAP tag).
T4 construct: also called W249A; source: HEK293, transfected, on cells; not shown: SNAP tag, N-terminal, kept
T4 sequence (looked up): T1 sequence (looked up) with A169L, W249A

B1: galanin-A2 (full-length galanin labeled with the dye A2 on an additional cysteine at the C-terminal end) (peptide)
peptide: GWTLNSAGYLLGPHAVGNHRSFSDKNGLTSC
modifications: dye A2 on the additional C-terminal cysteine
notes: numbers count on: the mature protein; additional cysteine at the C-terminal end of the peptide, carries the dye A2; source: synthetic peptide (synthesized by Vazyme, China)
B1: the Kd was determined as 86.2 nM in the assay with SNAP-GAL2R L169^ECL2A, 33.5 nM with SNAP-GAL2R A170^ECL2S, 51.6 nM in the assay with SNAP-GAL2R L172^ECL2A and 23.3 nM in the assay with SNAP-GAL2R W249^6.48A.
